Measurements reported in patent EP3088890B1 (Chugai Seiyaku Kabushiki Kaisha, dated 2020).

T1: GPC3 peptide 61-90 (SEQ ID NO: 4) (human)
T1 construct: Synthetic 30-residue peptide of GPC3
T1 peptide: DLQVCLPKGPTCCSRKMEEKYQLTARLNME

T2: GPC3 peptide 341-370 (SEQ ID NO: 18) (human)
T2 construct: Synthetic 30-residue peptide of GPC3
T2 peptide: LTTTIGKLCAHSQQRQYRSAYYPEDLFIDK

T3: GPC3 peptide 201-230 (SEQ ID NO: 11) (human)
T3 construct: Synthetic 30-residue peptide of GPC3
T3 peptide: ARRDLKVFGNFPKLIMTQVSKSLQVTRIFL

T4: GPC3 peptide 241-270 (SEQ ID NO: 13) (human)
T4 construct: Synthetic 30-residue peptide of GPC3
T4 peptide: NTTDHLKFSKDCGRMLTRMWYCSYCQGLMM

T5: GPC3 peptide 361-390 (SEQ ID NO: 19) (human)
T5 construct: Synthetic 30-residue peptide of GPC3
T5 peptide: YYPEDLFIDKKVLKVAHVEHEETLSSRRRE

T6: GPC3 peptide 101-130 (SEQ ID NO: 6) (human)
T6 construct: Synthetic 30-residue peptide of GPC3
T6 peptide: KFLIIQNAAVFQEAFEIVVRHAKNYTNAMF

T7: GPC3 peptide 381-410 (SEQ ID NO: 20) (human)
T7 construct: Synthetic 30-residue peptide of GPC3
T7 peptide: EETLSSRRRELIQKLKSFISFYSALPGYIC

T8: GPC3 peptide 481-510 (SEQ ID NO: 25) (human)
T8 construct: Synthetic 30-residue peptide of GPC3
T8 peptide: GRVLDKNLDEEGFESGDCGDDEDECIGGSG

T9: GPC3 peptide 521-550 (SEQ ID NO: 27) (human)
T9 construct: Synthetic 30-residue peptide of GPC3
T9 peptide: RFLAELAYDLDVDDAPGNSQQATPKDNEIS

T10: GPC3 peptide 551-580 (SEQ ID NO: 29) (human)
T10 construct: Synthetic 30-residue peptide of GPC3
T10 peptide: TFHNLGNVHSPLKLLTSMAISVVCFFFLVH

T11: GPC3 peptide 461-490 (SEQ ID NO: 24) (human)
T11 construct: Synthetic 30-residue peptide of GPC3
T11 peptide: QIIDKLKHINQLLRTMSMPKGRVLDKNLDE

T12: GPC3 peptide 281-310 (SEQ ID NO: 15) (human)
T12 construct: Synthetic 30-residue peptide of GPC3
T12 peptide: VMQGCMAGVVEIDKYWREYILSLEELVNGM

T13: GPC3 peptide 141-170 (SEQ ID NO: 8) (human)
T13 construct: Synthetic 30-residue peptide of GPC3
T13 peptide: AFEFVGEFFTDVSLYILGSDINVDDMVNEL

T14: GPC3 peptide 181-210 (SEQ ID NO: 10) (human)
T14 construct: Synthetic 30-residue peptide of GPC3
T14 peptide: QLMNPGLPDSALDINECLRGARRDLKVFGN

T15: GPC3 peptide 421-450 (SEQ ID NO: 22) (human)
T15 construct: Synthetic 30-residue peptide of GPC3
T15 peptide: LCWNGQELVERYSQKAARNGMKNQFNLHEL

T16: GPC3 peptide 121-150 (SEQ ID NO: 7) (human)
T16 construct: Synthetic 30-residue peptide of GPC3
T16 peptide: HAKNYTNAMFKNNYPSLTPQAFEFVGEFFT

T17: GPC3 peptide 261-290 (SEQ ID NO: 14) (human)
T17 construct: Synthetic 30-residue peptide of GPC3
T17 peptide: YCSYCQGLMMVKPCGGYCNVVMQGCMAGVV

T18: GPC3 peptide 21-50 (SEQ ID NO: 2) (human)
T18 construct: Synthetic 30-residue peptide of GPC3
T18 peptide: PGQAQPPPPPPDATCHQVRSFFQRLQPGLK

T19: GPC3 peptide 81-110 (SEQ ID NO: 5) (human)
T19 construct: Synthetic 30-residue peptide of GPC3
T19 peptide: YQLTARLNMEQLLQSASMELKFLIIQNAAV

T20: GPC3 peptide 221-250 (SEQ ID NO: 12) (human)
T20 construct: Synthetic 30-residue peptide of GPC3
T20 peptide: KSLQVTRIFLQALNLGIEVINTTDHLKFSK

T21: GPC3 peptide 441-470 (SEQ ID NO: 23) (human)
T21 construct: Synthetic 30-residue peptide of GPC3
T21 peptide: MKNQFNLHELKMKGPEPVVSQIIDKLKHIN

T22: GPC3 peptide 501-530 (SEQ ID NO: 26) (human)
T22 construct: Synthetic 30-residue peptide of GPC3
T22 peptide: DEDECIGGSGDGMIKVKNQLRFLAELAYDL

T23: GPC3 peptide 541-570 (SEQ ID NO: 28) (human)
T23 construct: Synthetic 30-residue peptide of GPC3
T23 peptide: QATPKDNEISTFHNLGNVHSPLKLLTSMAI

T24: GPC3 peptide 161-190 (SEQ ID NO: 9) (human)
T24 construct: Synthetic 30-residue peptide of GPC3
T24 peptide: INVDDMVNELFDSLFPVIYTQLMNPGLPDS

T25: GPC3 peptide 1-30 (SEQ ID NO: 1) (human)
T25 construct: Synthetic 30-residue peptide of GPC3
T25 peptide: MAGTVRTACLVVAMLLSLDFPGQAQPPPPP

T26: GPC3 peptide 401-430 (SEQ ID NO: 21) (human)
T26 construct: Synthetic 30-residue peptide of GPC3
T26 peptide: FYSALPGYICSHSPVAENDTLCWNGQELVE

T27: GPC3 peptide 41-70 (SEQ ID NO: 3) (human)
T27 construct: Synthetic 30-residue peptide of GPC3
T27 peptide: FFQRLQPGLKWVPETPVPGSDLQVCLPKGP

T28: GPC3 peptide 301-330 (SEQ ID NO: 16) (human)
T28 construct: Synthetic 30-residue peptide of GPC3
T28 peptide: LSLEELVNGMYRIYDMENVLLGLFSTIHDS

T29: GPC3 peptide 321-350 (SEQ ID NO: 17) (human)
T29 construct: Synthetic 30-residue peptide of GPC3
T29 peptide: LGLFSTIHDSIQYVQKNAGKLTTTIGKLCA

B1: GT165 antibody (antibody, IgG1, V domains shown)
VH: QVQLQQSGAELVGPGASVKISCKAFGYTFTNHHINWVKQRPGQGLDWIGYINPYNDYTNYNQKFKGKATLTVDKSSSTAYMELSSLTSEDSAVYYCARSDPAWFAYWGQGTLVTVSA
VL: DIQMTQSPSSLSASLGGKVTITCKASQDINKNIAWYQHKPGKGPRLLIWYTYTLQPGIPSRFSGSGSGRDYSFSISNLEPEDIATYYCLQYDNLPFTFGTGTKLEIKR

These binders were tested against T30, AW2, C-terminally His-tagged recombinant product of positions 1 to 196 of GPC3 (human, UniProt P51654 25-196) (assay: Western blot, pellets of CHO cells expressing the product).
T30 construct: Expressed in CHO cells, cell pellets used in Western blot; The range is as printed and starts at position 1; also called AW2 (1-196); not shown: C-terminal His tag
T30 sequence (P51654 25-196): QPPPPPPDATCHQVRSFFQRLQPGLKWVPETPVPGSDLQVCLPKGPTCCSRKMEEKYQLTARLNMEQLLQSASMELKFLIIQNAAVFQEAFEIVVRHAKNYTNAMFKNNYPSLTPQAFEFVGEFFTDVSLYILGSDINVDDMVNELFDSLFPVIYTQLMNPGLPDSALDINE

binding result | Binder
no binding | B1

Molecular target: T1, GPC3 peptide 61-90 (SEQ ID NO: 4)
Assay: peptide ELISA, peptide on plate

binding result | Binder
no binding (tested: 2 µg/mL) | B1

Molecular target: T2, GPC3 peptide 341-370 (SEQ ID NO: 18)
Assay: peptide ELISA, peptide on plate

binding result | Binder
no binding (tested: 2 µg/mL) | B1

Molecular target: T3, GPC3 peptide 201-230 (SEQ ID NO: 11)
Assay: peptide ELISA, peptide on plate

binding result | Binder
no binding (tested: 2 µg/mL) | B1

Molecular target: T4, GPC3 peptide 241-270 (SEQ ID NO: 13)
Assay: peptide ELISA, peptide on plate

binding result | Binder
no binding (tested: 2 µg/mL) | B1

Molecular target: T5, GPC3 peptide 361-390 (SEQ ID NO: 19)
Assay: peptide ELISA, peptide on plate

binding result | Binder
no binding (tested: 2 µg/mL) | B1

Molecular target: T6, GPC3 peptide 101-130 (SEQ ID NO: 6)
Assay: peptide ELISA, peptide on plate

binding result | Binder
no binding (tested: 2 µg/mL) | B1

Molecular target: T7, GPC3 peptide 381-410 (SEQ ID NO: 20)
Assay: peptide ELISA, peptide on plate

binding result | Binder
no binding (tested: 2 µg/mL) | B1

Molecular target: T8, GPC3 peptide 481-510 (SEQ ID NO: 25)
Assay: peptide ELISA, peptide on plate

binding result | Binder
no binding (tested: 2 µg/mL) | B1

Molecular target: T9, GPC3 peptide 521-550 (SEQ ID NO: 27)
Assay: peptide ELISA, peptide on plate

binding result | Binder
no binding (tested: 2 µg/mL) | B1

Molecular target: T10, GPC3 peptide 551-580 (SEQ ID NO: 29)
Assay: peptide ELISA, peptide on plate

binding result | Binder
no binding (tested: 2 µg/mL) | B1

Molecular target: T11, GPC3 peptide 461-490 (SEQ ID NO: 24)
Assay: peptide ELISA, peptide on plate

binding result | Binder
no binding (tested: 2 µg/mL) | B1

Molecular target: T12, GPC3 peptide 281-310 (SEQ ID NO: 15)
Assay: peptide ELISA, peptide on plate

binding result | Binder
no binding (tested: 2 µg/mL) | B1

Molecular target: T13, GPC3 peptide 141-170 (SEQ ID NO: 8)
Assay: peptide ELISA, peptide on plate

binding result | Binder
no binding (tested: 2 µg/mL) | B1

Molecular target: T14, GPC3 peptide 181-210 (SEQ ID NO: 10)
Assay: peptide ELISA, peptide on plate

binding result | Binder
no binding (tested: 2 µg/mL) | B1

Molecular target: T15, GPC3 peptide 421-450 (SEQ ID NO: 22)
Assay: peptide ELISA, peptide on plate

binding result | Binder
no binding (tested: 2 µg/mL) | B1

Molecular target: T16, GPC3 peptide 121-150 (SEQ ID NO: 7)
Assay: peptide ELISA, peptide on plate

binding result | Binder
no binding (tested: 2 µg/mL) | B1

Molecular target: T17, GPC3 peptide 261-290 (SEQ ID NO: 14)
Assay: peptide ELISA, peptide on plate

binding result | Binder
no binding (tested: 2 µg/mL) | B1

Molecular target: T18, GPC3 peptide 21-50 (SEQ ID NO: 2)
Assay: peptide ELISA, peptide on plate

binding result | Binder
no binding (tested: 2 µg/mL) | B1

Molecular target: T19, GPC3 peptide 81-110 (SEQ ID NO: 5)
Assay: peptide ELISA, peptide on plate

binding result | Binder
no binding (tested: 2 µg/mL) | B1

Molecular target: T20, GPC3 peptide 221-250 (SEQ ID NO: 12)
Assay: peptide ELISA, peptide on plate

binding result | Binder
no binding (tested: 2 µg/mL) | B1

Molecular target: T21, GPC3 peptide 441-470 (SEQ ID NO: 23)
Assay: peptide ELISA, peptide on plate

binding result | Binder
no binding (tested: 2 µg/mL) | B1

Molecular target: T22, GPC3 peptide 501-530 (SEQ ID NO: 26)
Assay: peptide ELISA, peptide on plate

binding result | Binder
no binding (tested: 2 µg/mL) | B1

Molecular target: T23, GPC3 peptide 541-570 (SEQ ID NO: 28)
Assay: peptide ELISA, peptide on plate

binding result | Binder
no binding (tested: 2 µg/mL) | B1

Molecular target: T24, GPC3 peptide 161-190 (SEQ ID NO: 9)
Assay: peptide ELISA, peptide on plate

binding result | Binder
no binding (tested: 2 µg/mL) | B1

Molecular target: T25, GPC3 peptide 1-30 (SEQ ID NO: 1)
Assay: peptide ELISA, peptide on plate

binding result | Binder
no binding (tested: 2 µg/mL) | B1

Molecular target: T26, GPC3 peptide 401-430 (SEQ ID NO: 21)
Assay: peptide ELISA, peptide on plate

binding result | Binder
no binding (tested: 2 µg/mL) | B1

Molecular target: T27, GPC3 peptide 41-70 (SEQ ID NO: 3)
Assay: peptide ELISA, peptide on plate

binding result | Binder
no binding (tested: 2 µg/mL) | B1

Molecular target: T28, GPC3 peptide 301-330 (SEQ ID NO: 16)
Assay: peptide ELISA, peptide on plate

binding result | Binder
no binding (tested: 2 µg/mL) | B1

Molecular target: T29, GPC3 peptide 321-350 (SEQ ID NO: 17)
Assay: peptide ELISA, peptide on plate

binding result | Binder
no binding (tested: 2 µg/mL) | B1
